Data as given in patent US20210214414A1 (Pfizer, published 2021).

Experiments:
Human SLIT2-N [1] = target: T1, Human SLIT2-N (human, UniProt O94813 31-1121, limits assumed); assay: HTRF competition: d2-labelled human SLIT2-N binding to ROBO2 on HEK293 cells (competitor: cell surface ROBO2) (FIG. 12)
T1 construct: domain: SLIT2-N (N terminal fragment); Soluble analyte in SPR, d2-labelled in HTRF, overexpressed on HEK293 cells in flow cytometry; also called human SLIT2-N (N terminal fragment)
T1 sequence (looked up): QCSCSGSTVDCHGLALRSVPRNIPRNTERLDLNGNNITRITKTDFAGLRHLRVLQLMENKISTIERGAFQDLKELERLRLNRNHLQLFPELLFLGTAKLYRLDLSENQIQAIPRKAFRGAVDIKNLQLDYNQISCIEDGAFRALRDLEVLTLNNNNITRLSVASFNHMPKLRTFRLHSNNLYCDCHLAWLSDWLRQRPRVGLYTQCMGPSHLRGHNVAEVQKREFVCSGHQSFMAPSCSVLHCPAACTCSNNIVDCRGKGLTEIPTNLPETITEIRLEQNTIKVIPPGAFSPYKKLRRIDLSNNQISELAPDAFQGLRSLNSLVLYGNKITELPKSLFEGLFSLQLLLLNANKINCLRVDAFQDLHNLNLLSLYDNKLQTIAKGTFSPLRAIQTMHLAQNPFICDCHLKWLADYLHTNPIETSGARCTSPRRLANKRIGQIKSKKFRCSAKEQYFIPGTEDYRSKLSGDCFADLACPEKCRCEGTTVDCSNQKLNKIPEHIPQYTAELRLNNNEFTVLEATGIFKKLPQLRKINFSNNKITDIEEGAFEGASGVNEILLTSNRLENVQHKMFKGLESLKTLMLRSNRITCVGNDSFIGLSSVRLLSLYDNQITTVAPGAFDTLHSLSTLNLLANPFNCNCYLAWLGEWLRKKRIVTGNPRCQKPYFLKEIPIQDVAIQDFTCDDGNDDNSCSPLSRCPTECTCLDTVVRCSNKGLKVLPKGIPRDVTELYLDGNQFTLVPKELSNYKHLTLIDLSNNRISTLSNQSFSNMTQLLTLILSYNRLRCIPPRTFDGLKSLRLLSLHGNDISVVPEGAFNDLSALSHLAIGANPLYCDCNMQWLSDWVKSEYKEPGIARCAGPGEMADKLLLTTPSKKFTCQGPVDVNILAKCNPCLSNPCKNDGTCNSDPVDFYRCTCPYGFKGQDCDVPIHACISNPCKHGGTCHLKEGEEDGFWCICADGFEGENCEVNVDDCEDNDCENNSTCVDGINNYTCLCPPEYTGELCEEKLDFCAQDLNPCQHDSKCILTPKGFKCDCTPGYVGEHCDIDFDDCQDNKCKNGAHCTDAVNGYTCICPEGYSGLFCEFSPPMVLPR
Experimental: After incubation, fluorescence at 665 nm and 620 nm was measured on an Envision multilabel plate reader. The HTRF Ratio was calculated as follows: fluorescence at 665 nm/fluorescence at 620 nm×10,000.

Human SLIT2-N [2] = target: T1, Human SLIT2-N; assay: summary of the Examples (FIGS. 11-13) against ROBO2-Fc 2.2
Human SLIT2-N [3] = target: T1, Human SLIT2-N; assay: flow cytometry, AF647-labelled ROBO2-Fc S17T/R73Y on HEK293 cells overexpressing human SLIT2-N (FIG. 11)
Experimental: After incubation, […] FACS buffer was added per well to wash the cells. After washing, cells were resuspended in buffer for data acquisition on a Fortessa Flow Cytometer.

- IC50 (Human SLIT2-N [1]): 1.4 nM
- fold increase of binding affinity to SLIT2 against SEQ ID NO: 1 (Human SLIT2-N [2]): ~10 fold
- EC50 (Human SLIT2-N [3]): 2.5 nM
B1: ROBO2-Fc S17T/R73Y (Fc fusion)
chain: SRLRQEDFPPRIVEHPTDVIVSKGEPTTLNCKAEGRPTPTIEWYKDGERVETDKDDPRSHRMLLPSGSLFFLYIVHGRRSKPDEGSYVCVARNYLGEAVSRNASLEVALLRDDFRQNPTDVVVAAGEPAILECQPPRGHPEPTIYWKKDKVRIDDKEERISIRGGKLMISNTRKSDAGMYTCVGTNMVGERDSDPAELTVFERGGSGGSEPKSSDKTHTCPPCPAPEAAGAPSVFLFPPKPKDTLMISRTPEVTCVVVDVSHEDPEVKFNWYVDGVEVHNAKTKPREEQYNSTYRVVSVLTVLHQDWLNGKEYKCKVSNKALPAPIEKTISKAKGQPREPQVYTLPPSREEMTKNQVSLTCLVKGFYPSDIAVEWESNGQPENNYKTTPPVLDSDGSFFLYSKLTVDKSRWQQGNVFSCSVMHEALHNHYTQKSLSLSPGK
notes: Labelled with Alexa Fluor 647 in the flow cytometry assay; also called ROBO2-Fc 517T/R73Y; ROBO2-Fc S17T/R73Y-AF647
